A word on the EC50: it is the concentration at which the effect is half-maximal. As usually defined, the Kd is the constant that tells how readily two partners part at equilibrium. By koff is commonly meant a measure of how fast the partners let go of each other. Broadly, the kon is the second-order rate constant of association.

The source of these data is US20120189541A1 (AbbVie / Abbott, published 2012).

Test [1] has as its target T1, Recombinant Human IL-1β (human, UniProt P01584 117-269).
T1 construct: Bought recombinant protein; Biotinylated in the capture ELISA; also called hIL-1β; IL-1 beta
The experiment in a line: capture ELISA: antibody captured by anti-human Fc, biotinylated antigen titrated. The protocol:
Plates were washed five times in washing buffer (PBS containing 0.05% Tween 20) and blocked for 1 hour at 25° C. with 200 μl per well superblock blocking buffer (Thermo scientific, #37515). Blocking buffer was removed, and 2 μg/ml of each antibody or DVD-Ig molecule in PBS containing 10% superblock, 0.5% Tween-20 was added to the wells at 100 μl per well and incubated at 25° C. for 1 hour. The wells were washed five times in 1×PBST, and 1 μg/ml biotinylated antigen was titrated at 1:6 serial dilutions (for a range of μg to pg in PBS containing 10% superblock, 0.05% tween 20). Each dilution of antigen was then added to the plates and incubated for 1 hour at 25° C. The wells were washed five times in 1×PBST and incubated for 1 hour at 25° C. with polyHRP streptavidin (KPL #474-3000, Gaithersburg, Md.). The wells were washed five times in 1×PBST, and 100 μl of ULTRA-TMB ELISA (Pierce, Rockford, Ill.) were added per well. Following color development the reaction was stopped with 1N HCL and absorbance at 450 nm is measured.
Background: In an ELISA, binding on a coated surface is turned into a signal by an enzyme label.

Test [2] addresses T1, Recombinant Human IL-1β. The experiment in a line: cell-based or functional assay.
Test [3] concerns the target T1, Recombinant Human IL-1β. The experiment in a line: SPR (BIACORE), human antigen. The procedure:
(§1) The BIACORE assay (Biacore, Inc, Piscataway, N.J.) determines the affinity of antibodies or DVD-Ig molecule with kinetic measurements of on-rate and off-rate constants. Binding of antibodies or DVD-Ig molecule to a target antigen (for example, a purified recombinant target antigen) is determined by surface plasmon resonance-based measurements with a Biacore® 1000 or 3000 instrument (Biacore® AB, Uppsala, Sweden) using running HBS-EP (10 mM HEPES [pH 7.4], 150 mM NaCl, 3 mM EDTA, and 0.005% surfactant P20) at 25° C. All chemicals are obtained from Biacore® AB (Uppsala, Sweden) or otherwise from a different source as described in the text. For example, approximately 5000 RU of goat anti-mouse IgG, (Fcγ), fragment specific polyclonal antibody (Pierce Biotechnology Inc, Rockford, Ill.) diluted in 10 mM sodium acetate (pH 4.5) is directly immobilized across a CM5 research grade biosensor chip using a standard amine coupling kit according to manufacturer's instructions and procedures at 25 μg/ml. Unreacted moieties on the biosensor surface are blocked with ethanolamine. Modified carboxymethyl dextran surface in flowcell 2 and 4 is used as a reaction surface. Unmodified carboxymethyl dextran without goat anti-mouse IgG in flow cell 1 and 3 is used as the reference surface. For kinetic analysis, rate equations derived from the 1:1 Langmuir binding model are fitted simultaneously to association and dissociation phases of all eight injections (using global fit analysis) with the use of Biaevaluation 4.0.1 software. Purified antibodies or DVD-Ig molecule are diluted in HEPES-buffered saline for capture across goat anti-mouse IgG specific reaction surfaces. Antibodies or DVD-Ig molecule to be captured as a ligand (25 μg/ml) are injected over reaction matrices at a flow rate of 5 μl/min. The association and dissociation rate constants, kₒₙ (M⁻¹s⁻¹) and koff (s⁻¹) are determined under a continuous flow rate of 25 μl/minute. Rate constants are derived by making kinetic binding measurements at different antigen concentrations ranging from 10-200 nM. The equilibrium dissociation constant (M) of the reaction between antibodies or DVD-Ig molecules and the target antigen is then calculated from the kinetic rate constants by the following formula: KD=koff/kₒₙ. Binding is recorded as a function of time and kinetic rate constants are calculated.

Test [4] deals with T2, Recombinant Human IL-1α (human, UniProt P01583 113-271).
T2 sequence (looked up): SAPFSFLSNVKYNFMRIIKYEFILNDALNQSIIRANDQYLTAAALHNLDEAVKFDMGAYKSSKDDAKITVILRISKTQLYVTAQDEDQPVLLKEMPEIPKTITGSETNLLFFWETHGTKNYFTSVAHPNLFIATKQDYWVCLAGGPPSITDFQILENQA
The experiment in a line: cell-based or functional assay.

Test [5] addresses T2, Recombinant Human IL-1α. The experiment in a line: SPR (BIACORE), human antigen. The protocol: as §1
In general terms: SPR reads the build-up and loss of mass on a sensor chip optically.

Another test deals with T3, Cynomolgus IL-1α (cynomolgus, UniProt P79340 113-271, limits assumed).
T3 sequence (looked up): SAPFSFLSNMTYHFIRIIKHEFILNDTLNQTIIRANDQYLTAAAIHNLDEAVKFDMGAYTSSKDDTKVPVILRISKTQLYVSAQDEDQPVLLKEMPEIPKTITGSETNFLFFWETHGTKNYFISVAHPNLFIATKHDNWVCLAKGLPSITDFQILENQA
The test can be described thus: cell-based or functional assay.

A further test addresses T4, Cynomolgus IL-1β (cynomolgus, UniProt P79182 117-268, limits assumed).
T4 sequence (looked up): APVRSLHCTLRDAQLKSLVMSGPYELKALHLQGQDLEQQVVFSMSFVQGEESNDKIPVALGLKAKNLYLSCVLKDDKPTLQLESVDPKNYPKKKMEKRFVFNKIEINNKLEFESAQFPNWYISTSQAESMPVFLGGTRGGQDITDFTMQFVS
The experiment in a line: cell-based or functional assay.

B1: 1B12.1 (antibody, human IgG1, kappa, L234A L235A, V domains shown)
VH: EVQLQESGPGLVKPSETLSLTCTVSGFSLSDYGVSWIRQPPGKGLEWLGLIWGGGDTYYNSPLKSRLTISKDNSKSQVSLKLSSVTAADTAVYYCAKQRTLWGYDLYGMDYWGQGTLVTVSS
VL: DTQVTQSPSSLSASVGDRVTITCITSTDIDVDMNWYQQKPGKPPKLLISQGNTLRPGVPSRFSSSGSGTDFTFTISSLQPEDFATYYCLQSDNLPLTFGQGTKLEIKR
notes: Parent anti-IL-1β antibody; also called 1B12.1VH; 1B12.1VL
With B1, the EC50 with Recombinant Human IL-1β [1] was 0.0399 nM. Besides, the “Human IL-1β Neutralization Assay EC50 (IL-1 induced hIL-8, MRC-5 cells)” value (from here on “Human IL-1β Neutralization Assay EC50”) with Recombinant Human IL-1β [2] stood at 0.15 nM. Further, in the test with Recombinant Human IL-1β [3], the Kd was 0.186 nM, the koff came out at 0.00103 s⁻¹ and the kon stood at 5.55e+06 M⁻¹ s⁻¹.

B2: 1B12.3 (antibody, human IgG1, kappa, L234A L235A, V domains shown)
VH: EVQLQESGPGLVKPSETLSLTCTVSGFSLSDYGVSWIRQPPGKGLEWLGLIWGGGDTYYNSPLKSRLTISKDNSKSQVSLKLSSVTAADTAVYYCAKQRTLWGYDLYGMDYWGQGTLVTVSS
VL: DTVVTQSPAFLSVTPGEKVTITCITSTDIDVDMNWYQQKPDQPPKLLISQGNTLRPGVPSRFSSSGSGTDFTFTISSLEAEDAATYYCLQSDNLPLTFGQGTKLEIKR
notes: Parent anti-IL-1β antibody; also called 1B12.3VH; 1B12.3VL
As for B2, the EC50 with Recombinant Human IL-1β [1] stood at 0.0438 nM. The “Human IL-1β Neutralization Assay EC50” value with Recombinant Human IL-1β [2] is 0.3 nM. Besides, in the test with Recombinant Human IL-1β [3], the Kd was 0.206 nM, the koff was 0.00118 s⁻¹ and the kon was 5.73e+06 M⁻¹ s⁻¹.

B3: 1B12.6 (antibody, human IgG1, kappa, L234A L235A, V domains shown)
VH: EVQLVESGGGLVQPGGSLRLSCAVSGFTLSDYGVSWIRQAPGKGLEWLGLIWGGGDTYYNSPLKSRLTISKDNSKSTVYLQMNSLRAEDTAVYYCAKQRTLWGYDLYGMDYWGQGTLVTVSS
VL: ETTVTQSPSSLSASVGDRVTITCITSTDIDVDMNWYQQKPGKPPKLLISQGNTLRPGVPSRFSSSGSGTDFTFTISSLQPEDFATYYCLQSDNLPLTFGQGTKLEIKR
notes: Parent anti-IL-1β antibody; also called 1B12.6VH; 1B12.6VL
Take B3: the EC50 with Recombinant Human IL-1β [1] was 0.0459 nM. For the same molecule, the “Human IL-1β Neutralization Assay EC50” value with Recombinant Human IL-1β [2] is 0.38 nM. Besides, in the test with Recombinant Human IL-1β [3], the Kd was determined as 0.202 nM, the off-rate (koff) was found to be 0.00125 s⁻¹ and the kon was 6.2e+06 M⁻¹ s⁻¹.

B4: E26.13-SS-3D12.10/15 (bispecific antibody, human IgG1, kappa, L234A L235A)
heavy: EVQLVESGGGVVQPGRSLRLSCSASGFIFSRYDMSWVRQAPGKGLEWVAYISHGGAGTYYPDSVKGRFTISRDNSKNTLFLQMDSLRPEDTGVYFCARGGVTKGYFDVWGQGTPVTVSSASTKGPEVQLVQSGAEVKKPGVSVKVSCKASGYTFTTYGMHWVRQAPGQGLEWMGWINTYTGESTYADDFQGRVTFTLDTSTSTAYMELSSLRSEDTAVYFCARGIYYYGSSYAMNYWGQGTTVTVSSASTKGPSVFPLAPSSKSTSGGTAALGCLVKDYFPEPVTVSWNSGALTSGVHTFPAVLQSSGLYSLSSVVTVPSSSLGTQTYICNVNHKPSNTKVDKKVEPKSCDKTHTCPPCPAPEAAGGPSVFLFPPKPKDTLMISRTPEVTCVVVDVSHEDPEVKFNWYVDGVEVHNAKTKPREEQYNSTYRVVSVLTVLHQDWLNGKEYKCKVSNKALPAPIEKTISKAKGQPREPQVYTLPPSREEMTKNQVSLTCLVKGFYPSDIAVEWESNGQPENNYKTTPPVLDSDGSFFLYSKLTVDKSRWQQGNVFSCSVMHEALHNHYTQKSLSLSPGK
light: DIQMTQSPSSLSASVGDRVTITCRASGNIHNYLTWYQQTPGKAPKLLIYNAKTLADGVPSRFSGSGSGTDYTFTISSLQPEDIATYYCQHFWSIPYTFGQGTKLQITRTVAAPDIQMTQSPSSLSASVGDRVTITCRASQDISNMLNWYQQKPGKTPKLLIYYTSRLYPGVPSRFSGSGSGTDYTFTISSLQPEDIATYFCQQGKTLPYAFGQGTKLEIKRTVAAPSVFIFPPSDEQLKSGTASVVCLLNNFYPREAKVQWKVDNALQSGNSQESVTEQDSKDSTYSLSSTLTLSKADYEKHKVYACEVTHQGLSSPVTKSFNRGEC
notes: DVD-Ig, outer (N-terminal) domain anti-IL-1β, inner domain anti-IL-1α, short linkers
As to B4, the “Human IL-1α Neutralization Assay EC50 (IL-1 induced hIL-8, MRC-5 cells)” value with Recombinant Human IL-1α [4] came out at 0.0538 nM. The “Human IL-1β Neutralization Assay EC50” value with Recombinant Human IL-1β [2] is 0.0099 nM. Besides, in the test with Recombinant Human IL-1α [5], the dissociation constant (Kd) worked out at 0.569 nM, the off-rate (koff) worked out at 3.25e-05 s⁻¹ and the kon came out at 56900 M⁻¹ s⁻¹. In the test with Recombinant Human IL-1β [3], the Kd is 0.0161 nM, the off-rate constant (koff) amounted to 2.65e-05 s⁻¹ and the kon came out at 1.66e+06 M⁻¹ s⁻¹. The “Cyno IL-1α Neutralization Assay EC50 (IL-1 induced hIL-8, MRC-5 cells)” value with Cynomolgus IL-1α was 0.0626 nM. For the same molecule, the “Cyno IL-1β Neutralization Assay EC50 (IL-1 induced hIL-8, MRC-5 cells)” value with Cynomolgus IL-1β amounted to 0.0056 nM.
